According to the supplement of paper PMC10567573:

B1: PRPH (parent)
chain: RTFGPPPSLSPGAFSYSSSSRFSS
B2: ADAMTS4 (parent)
chain: SFRKFRYGYNNVVTIPAGATHILV

Variants of: B1
Assay: protein stability index of a GFP-peptide fusion (GPS, HEK-293T) (PSI 1-6); higher = more stable
Details: c terminus: a fixed tail appended
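Note: lentivirally expressed fusions sorted by FACS into six bins by GFP to DsRed ratio, PSI derived from sequencing read proportions per bin multiplied by bin number.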

Protein stability index, by site and new letter:
L9: K 3.8, F 3.39, R 4.05, Q 3.76, Y 2.94, V 3.31, G 3.64, E 3.44, C 2.71, A 3.52, T 3.7, N 3.42, S 3.8, H 3.54, D 3.61, W 3.09
P6: V 3.05, I 2.9, G 3.02, Q 3.03, N 3.1, Y 2.11, E 2.83, C 2.09, S 3.37, M 2.8, L 2.95, H 2.79, A 2.76, F 2.15, W 2.01, K 3.25, T 2.71, R 3.02, D 2.86
A13: D 3.5, K 3.42, F 2.98, C 2.86, E 3.51, H 3.05, I 3.33, G 3.21
P11: V 2.69, Y 2.41, E 4, S 3.04, R 3.63, G 2.88, Q 3.38, M 2.52, H 2.74, A 3.11, W 2.23, T 2.94, L 2.59, I 2.46, N 3.12, C 1.64, D 3.45, K 2.44, F 2.11
S8: I 2.78, W 2.75, L 3.14, D 3.04, V 2.59, R 3.83, G 2.68, C 3.04, N 3.5, M 2.93, K 2.58, E 3.49
T2: P 3.08, C 2.02, A 2.95, S 3.73, V 2.23, G 2.89, M 2.52, D 3.21, Q 2.92, K 2.49, Y 2.31, N 2.92, H 3.17, F 2.46, I 2.97, L 2.43
F3: K 3.38, C 2.82, R 3.41, I 3.46, V 3.31, Y 3.16, S 3.6, D 4.09, A 3.33, E 3.72, M 3.75, L 4.11, T 3.54, G 3.13, W 3.19, N 3.38
R1: D 3.29, M 2.29, E 3.09, A 3.18, W 2.81, I 2.41, V 1.97, C 2.59, Y 2.4, F 2.52, G 3.25, Q 3.62, H 3.24, T 2.63, N 3.7, S 3.01, K 2.74
G12: V 3.36, F 2.16, I 3.05, T 3.31, W 2.25, E 3.27, S 3.42, C 1.96, R 3.35, Y 2.93, K 3.21, D 3.24, N 3.14, M 2.89, L 2.47
P7: E 2.89, L 2.71, T 3.56, Y 2.12, I 2.53, Q 3.13, A 3.22, D 3.45, H 3.15, G 2.92, K 3.71, M 2.77, R 2.93, W 2.08, F 2.34, S 3.26, C 1.6, V 2.86, N 3.02
S10: G 3.46, F 2.67, H 3.13, L 3.24, I 3.19, R 3.15, V 2.78, Q 3.34, Y 2.36, C 3.45, M 3.61, W 2.9, N 3.15, K 3.06, D 2.76, E 3.23
G4: R 3.1, M 3.08, C 2.9, I 2.55, K 2.26, F 3.06, H 3.2, E 3.43, W 2.22, L 2.42, S 3.21, Q 3.26, V 2.37, N 3.12, D 3.36
P5: F 2.61, D 3.35, H 2.81, Y 2.65, T 3.29, V 2.89, E 3.23, L 2.07, M 2.6, W 2.21, N 3.55, C 2.64, I 2.5, K 2.99, A 2.76, S 2.99, R 2.71, G 2.84, Q 2.6

Variants of: B2
Assay: as above
Details: c terminus: a fixed tail appended

Protein stability index, by site and new letter:
A19: Y 3.44, R 2.67, D 3.22, H 1.96, V 1.84, G 1.22, Q 1.88, P 2.17, F 3.91, L 3.23, T 1.36, W 2.72, N 2.17, C 2.13, E 3.97, K 3
G18: L 2, K 2.41, F 2.3, V 1.63, I 1.62, N 1.27, R 1.85, S 2.58, C 1.73, P 2.06, M 1.54, Y 1.64, W 1.9, A 1.72, H 1.71, T 2.71, Q 2.88, E 2.63, D 2.71
A17: Y 1.6
H21: P 1.28, M 2.12, V 2.02, Q 2.85, K 2.59, C 2.43, T 3.43, D 1.66, E 3.28, Y 3.3, N 2.65, R 2.32, A 1.3, F 3.18, S 2.3, G 2.48, I 2.4
T20: M 2.51, E 2.56, K 2.24, Y 1.69, A 2.32, I 2.77, H 1.63, F 3.2, W 2.38, C 2.86, V 2.55, Q 2.19, D 1.54, N 1.85, G 1.49, L 2.9, P 3.21
L23: I 3.28, N 1.75, Y 2.41, K 2, H 2.91, S 2.52, G 2.1, E 1.32, R 1.84, P 2.29, Q 1.37, V 2, W 2.15, C 2.19, D 1.78, A 2.4, T 3.08, F 2.76, M 2.43
V24: Q 1.75, E 2.34, A 1.52, Y 2.57, P 1.64, T 1.44, F 3.25, K 1.7, N 1.66, I 2, M 2.12, C 2.39, D 1.93, R 1.34, W 1.94, S 1.68, G 1.81, H 1.73, L 2.35
I22: M 1.9, D 2.24, H 1.8, V 1.79, W 1.83, L 2.51, F 2.58, A 1.74, N 1.83, C 2.42, P 2.59, Y 1.92, K 2.37, T 1.97, S 2.36, G 1.93, R 1.88, E 2.53, Q 2.31
